These are literature values, as cited in paper PMC5807066.

Several values for one entry are separate records, joined by “and”; a condition that tells them apart may be missing. Identical values can stand only once. Like-named read-outs stand apart in the source and are kept apart here.

The Kd is the equilibrium constant for the complex coming apart.

The target in series [1] is SecA:SecYEG complex (Escherichia coli) (UniProt C4ZRJ3).
For series [2], the target named is SecA (Escherichia coli) (UniProt P10408).
For series [3], the target named is MBP (unfolded) (Escherichia coli) [MBP: P0AEX9].
The target in series [4] is SecA (Escherichia coli) (UniProt P10408). This is another data set of the same source.
Series [5] has the same target. This is another data set of the same source.

Sequence of SecA (P10408 whole entry): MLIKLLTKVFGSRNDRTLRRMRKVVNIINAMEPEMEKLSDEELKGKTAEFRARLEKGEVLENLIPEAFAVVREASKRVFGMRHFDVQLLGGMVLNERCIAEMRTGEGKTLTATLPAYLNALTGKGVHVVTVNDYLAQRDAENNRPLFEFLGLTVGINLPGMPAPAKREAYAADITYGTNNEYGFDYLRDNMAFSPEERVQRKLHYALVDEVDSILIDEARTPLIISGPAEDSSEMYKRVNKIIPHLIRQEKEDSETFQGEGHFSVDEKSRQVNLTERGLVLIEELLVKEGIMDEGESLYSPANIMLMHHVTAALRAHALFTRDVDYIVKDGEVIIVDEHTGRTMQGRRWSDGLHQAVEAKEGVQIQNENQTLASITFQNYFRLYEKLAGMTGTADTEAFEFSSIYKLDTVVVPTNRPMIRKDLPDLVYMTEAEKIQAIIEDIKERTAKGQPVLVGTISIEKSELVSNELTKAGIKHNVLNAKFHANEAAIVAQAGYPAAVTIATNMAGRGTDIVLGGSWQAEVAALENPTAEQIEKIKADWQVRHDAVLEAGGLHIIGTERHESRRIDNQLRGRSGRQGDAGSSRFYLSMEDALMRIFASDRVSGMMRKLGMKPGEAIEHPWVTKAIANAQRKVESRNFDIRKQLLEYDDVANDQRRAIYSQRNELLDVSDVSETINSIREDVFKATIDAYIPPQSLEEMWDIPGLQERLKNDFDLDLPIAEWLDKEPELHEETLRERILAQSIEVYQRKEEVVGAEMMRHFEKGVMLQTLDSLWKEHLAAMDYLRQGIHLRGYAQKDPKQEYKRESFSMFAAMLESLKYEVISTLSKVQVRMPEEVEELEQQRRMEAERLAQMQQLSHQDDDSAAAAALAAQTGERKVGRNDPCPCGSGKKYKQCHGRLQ

PhoA precursor (from UniProt P00634): the Kd in series [1] was 230 nM.
Take SecA (from UniProt P10408): the dissociation constant Kd with SecA (Escherichia coli) [2] was 100 nM and 1000 nM.
With SecB (from UniProt P0AG86), the Kd was 30 nM in series [3], 2000 nM with SecA (Escherichia coli) [4] and 4000 nM with SecA (Escherichia coli) [5].
